Results taken from patent publication US20260137794A1, “LIGAND-DRUG CONJUGATE AND USE THEREOF” (SYSTIMMUNE, INC., priority 2022, published 2026).

Biological target: recombinant human CD33 protein (human, UniProt P20138 18-259, limits assumed)
Experiment: ELISA, recombinant human CD33 coated on the plate, antibody as comparator

Sequence of recombinant human CD33 protein (P20138 18-259 limits assumed): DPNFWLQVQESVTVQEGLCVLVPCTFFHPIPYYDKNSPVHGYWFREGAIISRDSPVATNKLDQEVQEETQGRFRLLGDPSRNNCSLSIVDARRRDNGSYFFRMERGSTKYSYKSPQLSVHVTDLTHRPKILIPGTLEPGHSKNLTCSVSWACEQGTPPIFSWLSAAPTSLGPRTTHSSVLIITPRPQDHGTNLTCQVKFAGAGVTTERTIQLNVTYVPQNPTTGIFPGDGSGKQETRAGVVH

B1: anti-CD33 antibody ANTI-CD33 (antibody, human IgG1, kappa, V domains shown)
VH: EVQLVQSGAEVKKPGSSVKVSCKASGYTITDSNIHWVRQAPGQSLEWIGYIYPYNGGTDYNQKFKNRATLTVDNPTNTAYMELSSLRSEDTAFYYCVNGNPWLAYWGQGTLVTVSS
VL: DIQLTQSPSTLSASVGDRVTITCRASESLDNYGIRFLTWFQQKPGKAPKLLMYAASNQGSGVPSRFSGSGSGTEFTLTISSLQPDDFATYYCQQTKEVPWSFGQGTKVEVKR
notes: also called ANTI-CD33 mAb; naked anti-CD33 antibody
- binding result: binds
